This is an account of results in PMC3536700, “Structural Basis for Feed-Forward Transcriptional Regulation of Membrane Lipid Homeostasis in Staphylococcus aureus”.

Series [1] deals with T1, SaFapR (Staphylococcus aureus RN4220, UniProt Q2FZ56 1-190).
T1 sequence: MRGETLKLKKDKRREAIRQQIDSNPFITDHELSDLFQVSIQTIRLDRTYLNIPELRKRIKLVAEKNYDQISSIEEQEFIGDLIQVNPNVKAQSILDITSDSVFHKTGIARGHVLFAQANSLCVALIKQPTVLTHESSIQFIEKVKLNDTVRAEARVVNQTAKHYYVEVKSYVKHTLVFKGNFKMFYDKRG
Nature of the series: ITC; first dimer, sequential binding model, 25 C; ITC: 50 mM Tris-HCl pH 8, 150 mM NaCl, 25 C; EMSA: 20 mM Tris-HCl pH 8, 350 mM NaCl, 10 mM MgCl2, 5 mM DTT, 15 min room temperature, native 5% PAGE in 45 mM Tris-borate pH 8, 1 mM EDTA. As to conditions: protein: recombinant; tags: N-terminal His-tag removed with TEV protease; chain copies: 2.

The target of series [2] is T1, SaFapR. Nature of the series: ITC; second dimer, sequential binding model, 25 C; ITC: 50 mM Tris-HCl pH 8, 150 mM NaCl, 25 C; EMSA: 20 mM Tris-HCl pH 8, 350 mM NaCl, 10 mM MgCl2, 5 mM DTT, 15 min room temperature, native 5% PAGE in 45 mM Tris-borate pH 8, 1 mM EDTA. The following applies: protein: recombinant; tags: N-terminal His-tag removed with TEV protease; chain copies: 2. (In general: Isothermal titration calorimetry measures the heat released or taken up as one component is titrated into another.)

B1: PfapR operator 40 bp (dsDNA)
DNA 1: GCCAATTATATACTACTATTAGTACCTAGTCTTAATTCCG
DNA 2: CGGAATTAAGACTAGGTACTAATAGTAGTATATAATTGGC
By Kd is commonly meant the equilibrium constant for the complex coming apart. Consider B1, for which the Kd worked out at 0.5 ± 0.1 nM in the series with SaFapR [1] and 51 ± 8 nM with SaFapR [2].
